# Assay results published in the supplement of paper PMC9112550, “Optimization of the antimicrobial peptide Bac7 by deep mutational scanning” (BMC Biology, 2022).
# Tested on: Escherichia coli TOP10
# Test: shrunken log2 fold change of peptide-encoding DNA abundance (4.5 h post-induction vs induction); higher = less antimicrobial activity (less host growth inhibition)
# Details: time post-induction: 4.5 h; library: site-saturation at positions 5, 18, 19, 20
# 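Also: peptides expressed intracellularly from a pBAD plasmid library in pooled LB shake-flask culture, induced with 0.3% L-arabinose, DNA abundance read by NGS, three biological replicates, DESeq2 with apeglm shrinkage.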
row,Sequence,shrunken log2 fold change
1,RRIRNRPPRLPRPRPRPMSSPRP,-0.123
2,RRIRFRPPRLPRPRPRPGQLPRP,-0.0429
3,RRIRVRPPRLPRPRPRPHCWPRP,0.0268
4,RRIRKRPPRLPRPRPRPCYNPRP,-0.428
5,RRIRERPPRLPRPRPRPDHLPRP,-0.223
6,RRIRPRPPRLPRPRPRPMPWPRP,0.215
7,RRIRSRPPRLPRPRPRPQTEPRP,-0.0463
8,RRIRFRPPRLPRPRPRPWCMPRP,-0.214
9,RRIRGRPPRLPRPRPRPAACPRP,1.15
10,RRIRTRPPRLPRPRPRPKYYPRP,-0.54
11,RRIRPRPPRLPRPRPRPSFIPRP,-0.601
12,RRIRPRPPRLPRPRPRPTTLPRP,-0.0741
13,RRIRHRPPRLPRPRPRPFATPRP,0.106
14,RRIRQRPPRLPRPRPRPHMYPRP,-0.706
15,RRIRIRPPRLPRPRPRPCIHPRP,-0.488
16,RRIRMRPPRLPRPRPRPTTCPRP,0.0613
17,RRIRPRPPRLPRPRPRPWILPRP,-0.451
18,RRIRPRPPRLPRPRPRPGVEPRP,0.249
19,RRIRHRPPRLPRPRPRPLRMPRP,-0.0592
20,RRIRPRPPRLPRPRPRPVASPRP,0.00755
21,RRIRPRPPRLPRPRPRPRQYPRP,-0.257
22,RRIRWRPPRLPRPRPRPPRCPRP,0.483
23,RRIRRRPPRLPRPRPRPMMQPRP,0.112
24,RRIRDRPPRLPRPRPRPSKEPRP,-0.031
25,RRIRHRPPRLPRPRPRPRVPPRP,-0.134

row,Sequence,shrunken log2 fold change
1,RRIRHRPPRLPRPRPRPNQHPRP,-0.922
2,RRIRIRPPRLPRPRPRPTLWPRP,0.22
3,RRIRYRPPRLPRPRPRPYDHPRP,-0.474
4,RRIRFRPPRLPRPRPRPDPQPRP,0.0361
5,RRIRFRPPRLPRPRPRPMALPRP,-0.706
6,RRIRFRPPRLPRPRPRPDWYPRP,-0.0899
7,RRIRVRPPRLPRPRPRPTGWPRP,0.377
8,RRIRKRPPRLPRPRPRPPEYPRP,0.0748
9,RRIRMRPPRLPRPRPRPVDYPRP,-0.0574
10,RRIRWRPPRLPRPRPRPACWPRP,0.517
11,RRIRNRPPRLPRPRPRPESMPRP,0.669
12,RRIRRRPPRLPRPRPRPFKSPRP,-0.336
13,RRIRLRPPRLPRPRPRPGKDPRP,-0.153
14,RRIRVRPPRLPRPRPRPKHNPRP,-0.292
15,RRIRKRPPRLPRPRPRPWLYPRP,0.00941
16,RRIRHRPPRLPRPRPRPVALPRP,-0.112
17,RRIRNRPPRLPRPRPRPVKHPRP,-0.23
18,RRIRPRPPRLPRPRPRPYQDPRP,-0.025
19,RRIRTRPPRLPRPRPRPQVTPRP,0.304
20,RRIRIRPPRLPRPRPRPLNFPRP,-0.434
21,RRIRLRPPRLPRPRPRPFWGPRP,-0.507
22,RRIRQRPPRLPRPRPRPVGAPRP,0.489
23,RRIRGRPPRLPRPRPRPGGEPRP,1.24
24,RRIRGRPPRLPRPRPRPCWHPRP,0.357
25,RRIRPRPPRLPRPRPRPLFMPRP,-0.38

row,Sequence,shrunken log2 fold change
1,RRIRQRPPRLPRPRPRPANVPRP,-0.105
2,RRIRFRPPRLPRPRPRPHTKPRP,-0.0159
3,RRIRHRPPRLPRPRPRPDMNPRP,-0.178
4,RRIRSRPPRLPRPRPRPMDRPRP,-0.155
5,RRIRLRPPRLPRPRPRPKITPRP,-0.203
6,RRIRGRPPRLPRPRPRPSLSPRP,0.576
7,RRIRVRPPRLPRPRPRPGILPRP,-0.466
8,RRIRQRPPRLPRPRPRPLVVPRP,0.0686
9,RRIRSRPPRLPRPRPRPRIGPRP,0.395
10,RRIRCRPPRLPRPRPRPKVVPRP,-0.0915
11,RRIRARPPRLPRPRPRPECGPRP,1.23
12,RRIRYRPPRLPRPRPRPALHPRP,0.12
13,RRIRWRPPRLPRPRPRPFHAPRP,0.0472
14,RRIRYRPPRLPRPRPRPYYPPRP,-0.293
15,RRIRLRPPRLPRPRPRPHGTPRP,0.0824
16,RRIRWRPPRLPRPRPRPAFMPRP,0.0849
17,RRIRSRPPRLPRPRPRPKRTPRP,0.312
18,RRIRRRPPRLPRPRPRPYQWPRP,-0.244
19,RRIRRRPPRLPRPRPRPPNLPRP,0.593
20,RRIRPRPPRLPRPRPRPWCNPRP,-0.239
21,RRIRRRPPRLPRPRPRPQGIPRP,-0.00228
22,RRIRMRPPRLPRPRPRPQECPRP,0.313
23,RRIRCRPPRLPRPRPRPNDQPRP,0.0359
24,RRIRIRPPRLPRPRPRPVTRPRP,0.0796
25,RRIRQRPPRLPRPRPRPRWDPRP,0.29
